Data published in PMC8476742, “Mapping Potential Determinants of Peroxidative Activity in an Evolved Fungal Peroxygenase from Agrocybe aegerita” (Frontiers in Bioengineering and Biotechnology, 2021).

Tests used:
Experiment in all cases: purified protein
Format in all cases: biochemical, Cyclocybe aegerita
purified protein [1] = substrate: CCn1c(=NN=c2sc3cc(S(=O)(=O)O)ccc3n2CC)sc2cc(S(=O)(=O)O)ccc21
purified protein [2] = substrate: O=[N+]([O-])c1ccc2c(c1)OCO2; settings: 1 mM H2O2, 100 mM potassium phosphate pH 7.0, 15% acetonitrile
purified protein [3] = substrate: COc1ccc(CO)cc1OC; settings: 2 mM H2O2, 100 mM potassium phosphate pH 7.0, clone 23
[4] = 2 mM H2O2, 100 mM sodium phosphate-citrate pH 3.0, clone 8
[5] = 2 mM H2O2, 100 mM sodium phosphate-citrate pH 3.0, clone 23

Protein | Km (purified protein [1]; [4]) | kcat (purified protein [1]; [4]) | kcat/Km (purified protein [1]; [4]) | Km (purified protein [2]; clone 8) | kcat (purified protein [2]; clone 8) | kcat/Km (purified protein [2]; clone 8) | Km (purified protein [1]; [5]) | kcat (purified protein [1]; [5]) | kcat/Km (purified protein [1]; [5]) | Km (purified protein [3]) | kcat (purified protein [3]) | kcat/Km (purified protein [3]) | Km (purified protein [2]; clone 23) | kcat (purified protein [2]; clone 23) | kcat/Km (purified protein [2]; clone 23)
PaDa-I (Cyclocybe aegerita; A359H/A360H/F354L/G361I/I291V/L110F/V100A/V118I) (protein, evolved secretion variant, mature secreted enzyme; signal peptide mutations F12Y, A14V, R15G, A21D; expressed in Saccharomyces cerevisiae BJ5464, purified by ion exchange, no tag mentioned; heme-thiolate) EPGLPPGPLENSSAKLVNDEAHPWKPLRPGDIRGPCPGLNTLASHGYLPRNGVATPAQIINAVQEGFNFDNQAAIFATYAAHLVDGNLITDLLSIGRKTRLTGPDPPPPASVGGLNEHGTFEGDASMTRGDAFFGNNHDFNETLFEQLVDYSNRFGGGKYNLTVAGELRFKRIQDSIATNPNFSFVDFRFFTAYGETTFPANLFVDGRRDDGQLDMDAARSFFQFSRMPDDFFRAPSPRSGTGVEVVVQAHPMQPGRNVGKINSYTVDPTSSDFSTPCLMYEKFVNITVKSLYPNPTVQLRKALNTNLDFLFQGVHHICTQVFPYGRD | 14 ± 2.4 µM | 239 ± 13 s⁻¹ | 1.68e+07 ± 3.03e+06 M⁻¹ s⁻¹ | 437 ± 53 µM | 368 ± 19 s⁻¹ | 842000 ± 111000 M⁻¹ s⁻¹ |  |  |  |  |  |  |  |  | 
PaDa-I (Cyclocybe aegerita; A359S/A360N/F354L/G361L/I291V/L110F/V100A/V118I/V358L) (protein, evolved secretion variant, mature secreted enzyme; signal peptide mutations F12Y, A14V, R15G, A21D; expressed in Saccharomyces cerevisiae BJ5464, purified by ion exchange, no tag mentioned; heme-thiolate) EPGLPPGPLENSSAKLVNDEAHPWKPLRPGDIRGPCPGLNTLASHGYLPRNGVATPAQIINAVQEGFNFDNQAAIFATYAAHLVDGNLITDLLSIGRKTRLTGPDPPPPASVGGLNEHGTFEGDASMTRGDAFFGNNHDFNETLFEQLVDYSNRFGGGKYNLTVAGELRFKRIQDSIATNPNFSFVDFRFFTAYGETTFPANLFVDGRRDDGQLDMDAARSFFQFSRMPDDFFRAPSPRSGTGVEVVVQAHPMQPGRNVGKINSYTVDPTSSDFSTPCLMYEKFVNITVKSLYPNPTVQLRKALNTNLDFLFQGLSNLCTQVFPYGRD |  |  |  |  |  |  | 15 ± 2 µM | 250 ± 11 s⁻¹ | 1.67e+07 ± 2.34e+06 M⁻¹ s⁻¹ | 4920 ± 450 µM | 151 ± 4 s⁻¹ | 31000 ± 3000 M⁻¹ s⁻¹ | 376 ± 40 µM | 367 ± 16 s⁻¹ | 976000 ± 112000 M⁻¹ s⁻¹
